The values below come from patent publication US20210292413A1 (ACADEMIA SINICA, published 2021).

For assay [1], the target named is T1, human Siglec-3 on cells (moDC, PBMC of CHB patients) (human, UniProt P20138 18-364).
T1 construct: whole, on cells; also called Siglec-3 receptor
Nature of the assay: flow cytometry on moDC with APC-conjugated anti-Siglec-3 mAb.

In assay [2] the target is T1, human Siglec-3 on cells (moDC, PBMC of …). Nature of the assay: co-IP (IP: Siglec-3) from moDC, lane Mock; Western blot, densitometry [A].
For assay [3] the target is unchanged. The experiment in a line: co-IP (IP: Siglec-3) from moDC treated with HBV (hHBV); Western blot, densitometry, fold of Mock [A]. (Immunoblotting shows a protein as a band on a membrane.)
Assay [4] has the same target. The experiment in a line: co-IP (IP: Siglec-3) from moDC treated with anti-Siglec-3 mAb 10C8; Western blot, densitometry, fold of Mock [A].
The target is the same in assay [5]. Nature of the assay: co-IP (IP: Siglec-3) from moDC, HBV +, 10C8 -; Western blot, densitometry, normalized to the untreated control [E].
Assay [6] shares this target. The experiment in a line: co-IP (IP: Siglec-3) from moDC, HBV -, 10C8 +; Western blot, densitometry, normalized to the untreated control [E].
Assay [7] shares this target. The experiment in a line: co-IP (IP: Siglec-3) from moDC, HBV -, 10C8 -; Western blot, densitometry, normalized to the untreated control [E].
For assay [8] the target is unchanged. The experiment in a line: co-IP (IP: Siglec-3) from moDC incubated with hHBV for 0 min; Western blot, densitometry, normalized to the starting point [E].
For assay [9] the target is unchanged. The experiment in a line: co-IP (IP: Siglec-3) from moDC incubated with hHBV for 15 min; Western blot, densitometry, normalized to the starting point [E].
Assay [10] has the same target. The experiment in a line: co-IP (IP: Siglec-3) from moDC incubated with hHBV for 30 min; Western blot, densitometry, normalized to the starting point [E].
The target is the same in assay [11]. Nature of the assay: co-IP (IP: Siglec-3) from moDC incubated with hHBV for 60 min; Western blot, densitometry, normalized to the starting point [E].
Assay [12] shares this target. Nature of the assay: co-IP (IP: Siglec-3) from moDC incubated 30 mins with 0 copies/mL hHBV; Western blot, densitometry, normalized to the first lane [F].
Assay [13] shares this target. Nature of the assay: co-IP (IP: Siglec-3) from moDC incubated 30 mins with 10^8 copies/mL hHBV; Western blot, densitometry, normalized to the first lane [F].
The target is the same in assay [14]. Nature of the assay: co-IP (IP: Siglec-3) from moDC incubated 30 mins with 10^9 copies/mL hHBV; Western blot, densitometry, normalized to the first lane [F].
Assay [15] has the same target. Nature of the assay: co-IP (IP: Siglec-3) from moDC incubated 30 mins with 3x10^8 copies/mL hHBV; Western blot, densitometry, normalized to the first lane [F].
For assay [16] the target is unchanged. Nature of the assay: co-IP (IP: Siglec-3) from moDC treated with anti-Siglec-3 mAb 2B9; Western blot, densitometry, fold of Mock; strong band at the 72 mark [A].
For assay [17] the target is unchanged. Nature of the assay: co-IP (IP: Siglec-3) from moDC, HBV +, 10C8 + (10C8 given 1 hour before HBV); Western blot, densitometry, normalized to the untreated control [E].

T1 sequence (P20138 18-364): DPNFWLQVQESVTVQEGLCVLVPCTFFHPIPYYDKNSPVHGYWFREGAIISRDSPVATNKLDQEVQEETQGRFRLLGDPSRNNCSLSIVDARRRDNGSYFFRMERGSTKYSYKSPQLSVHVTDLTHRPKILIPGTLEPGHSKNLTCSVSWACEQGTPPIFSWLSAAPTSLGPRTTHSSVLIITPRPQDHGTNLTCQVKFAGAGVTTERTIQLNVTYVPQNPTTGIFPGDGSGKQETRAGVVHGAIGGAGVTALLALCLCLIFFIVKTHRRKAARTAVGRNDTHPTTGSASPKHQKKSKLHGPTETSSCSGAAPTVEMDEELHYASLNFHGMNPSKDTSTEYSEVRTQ

B1: anti-Siglec-3 mAb clone 10C8 (antibody, human IgG1, kappa, V domains shown)
VH: EVQLVESGGGLVQPGGSLRLSCAASGFTINNGWIHWVRQAPGKGLEWVAGIGPYGGSTFYADSVKGRFTISADTSKNTAYLQMNSLRAEDTAVYYCSRFIGSYSHMDYWGQGTLVTVSS
VL: DIQMTQSPSSLSASVGDRVTITCRASQDVYYYVAWYQQKPGKAPKLLISSAGGLYSGVPSRFSGSGSGTDFTLTISSLQPEDFATYYCQQYFNFPLTFGQGTKVEIKR
notes: the isotype control used beside it is IgG1; also called mAb 10C8; antibody 10C8
Regarding B1, the binding result in [1] is reported as “binds”.

B2: SHP-1 (enzyme)
chain: not shown
In the case of B2, the “fold change of SHP-1 co-precipitated with Siglec-3” value (“fold change” for short) in assay [2] came out at 1 fold; in assay [3], 2.4 fold; in assay [4], 1.3 fold; in assay [5], 10 fold; in assay [6], 1.3 fold; in assay [7], 1 fold. For the same molecule, the “fold change” value in assay [8] came to 1 fold; in [9], 9.1 fold; in [10] it was 26 fold; in [11], 11 fold; in [12], 1 fold; in assay [13] it was 1.5 fold. Further, the “fold change” value in assay [14] was 14 fold; in [15], 7.7 fold; in assay [16], 36 fold; in [17], 1.2 fold.
